Article PMC12455930, “LEF-6 phosphorylation regulates the binding and trafficking of baculovirus late gene transcripts”

B1: p10 ssRNA (ssRNA)
RNA: CGGUUUGCCCGCUCAAUUGACCGAUCU
B2: unrelated ssRNA (ssRNA)
RNA: UUUUUUUUUUCUCUGCUCGACG
B3: p6.9 ssRNA (ssRNA)
RNA: GACAGGUCGCCGAAGUUACAGAACACG
B4: ie1 ssRNA (ssRNA)
RNA: UUAUAACCAUCCCACCCCGGAUGGAGC

Tests used:
[1] = target: T1, LEF-6 (non-phosphorylated, E. coli) (Autographa californica multiple …, UniProt S5G646 1-173); assay: fluorescence anisotropy; Anisotropy: 20 mM Tris-HCl pH 7.5, 20 mM NaCl, 5 nM FAM-ssRNA, 28 C; EMSA: 10 mM Tris pH 7.5, 20 mM KCl, 1 mM MgCl2, 1 mM DTT, 20 uM RNA, 22 C, 1% agarose/TAE.; settings: protein: recombinant, tags: His
T1 sequence: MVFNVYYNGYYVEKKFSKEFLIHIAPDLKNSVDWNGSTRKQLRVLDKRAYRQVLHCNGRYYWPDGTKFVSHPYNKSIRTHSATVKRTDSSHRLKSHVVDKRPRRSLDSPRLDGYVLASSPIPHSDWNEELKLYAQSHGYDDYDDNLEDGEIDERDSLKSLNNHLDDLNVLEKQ

[2] = target: T2, LEF6 1-90 (host not stated) (Autographa californica multiple …, UniProt S5G646 1-90); assay: as above; settings: protein: recombinant, tags: His
T2 sequence: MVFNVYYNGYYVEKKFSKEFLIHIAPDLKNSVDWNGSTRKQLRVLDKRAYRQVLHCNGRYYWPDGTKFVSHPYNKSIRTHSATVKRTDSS

LEF6 82-173 = target: T3, LEF6 82-173 (Autographa californica multiple …, UniProt S5G646 82-173); assay: EMSA; Anisotropy: 20 mM Tris-HCl pH 7.5, 20 mM NaCl, 5 nM FAM-ssRNA, 28 C; EMSA: 10 mM Tris pH 7.5, 20 mM KCl, 1 mM MgCl2, 1 mM DTT, 20 uM RNA, 22 C, 1% agarose/TAE.; settings: protein: recombinant; tags: His; label: FAM (anisotropy); EMSA detected by ethidium bromide
T3 sequence: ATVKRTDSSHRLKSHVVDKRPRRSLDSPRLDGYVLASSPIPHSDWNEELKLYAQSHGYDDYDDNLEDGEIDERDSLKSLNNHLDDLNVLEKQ

LEF6 1-90 (High Five) = target: T4, LEF6 1-90 (High Five) (Autographa californica multiple …, UniProt S5G646 1-90); assay: as above; settings: protein: recombinant; tags: His; label: FAM (anisotropy); EMSA detected by ethidium bromide
T4 sequence: T2 sequence

LEF6 1-90 (E. coli) = target: T5, LEF6 1-90 (E. coli) (Autographa californica multiple …, UniProt S5G646 1-90); assay: as above; settings: protein: recombinant; tags: His; label: FAM (anisotropy); EMSA detected by ethidium bromide
T5 sequence: T2 sequence

[3] = label: FAM (anisotropy), EMSA detected by ethidium bromide

Row | Binder | binding result [1, 3] | binding result [2, 3] | binding result ([1]; label: FAM) | binding result ([2]; label: FAM) | binding result (LEF6 82-173) | binding result (LEF6 1-90 (High Five)) | binding result (LEF6 1-90 (E. coli))
1 | B1 | binds | binds |  |  |  |  | 
2 | B2 |  |  | binds | binds |  |  | 
3 | B3 | binds | binds |  |  | no binding | binds | binds
4 | B4 |  |  | binds | binds |  |  | 
